# Measurements from the Immune Epitope Database (IEDB).
# pKd: −log10 of the molar value.
# Columns and labels:
# Test in all cases: IEDB peptide-MHC binding, purified MHC/competitive/radioactivity; filed as Kd, often an IC50 or EC50 that approximates it; ≥ and ≤ were set here for values at or beyond the usual limits of such assays
# [1] = molecular target: HLA-A*11:01
# [2] = molecular target: HLA-A*68:01
# [3] = molecular target: HLA-A*03:01
# [4] = molecular target: HLA-A*31:01
# [5] = molecular target: HLA-A*33:01
# [6] = source organism: SARS coronavirus Tor2
# [7] = source organism: Triticum aestivum
# [8] = source organism: Mammarenavirus whitewaterense
# [9] = source organism: Vaccinia virus WR
# [10] = source organism: Vaccinia virus Copenhagen
# [11] = source organism: Mammarenavirus machupoense
# [12] = source organism: Mammarenavirus brazilense
Sequence,"pKd [1, 9]","pKd [2, 9]","pKd [3, 9]","pKd [4, 9]","pKd [5, 9]",also measured
TLLPLTQYNR,–,–,–,–,–,"pKd [1, 6]: 5.09; pKd [2, 6]: 5.47; pKd [3, 6]: 5.14; pKd [4, 6]: 5.87; pKd [5, 6]: 5.34"
HAIILHQQQK,–,–,–,–,–,"pKd [1, 7]: 5.95; pKd [2, 7]: 7.98; pKd [3, 7]: 5.90; pKd [4, 7]: 4.96; pKd [5, 7]: ≤ 4.35"
EQLQLLMPLK,–,–,–,–,–,"pKd [1, 6]: 6.82; pKd [2, 6]: 5.75; pKd [3, 6]: 5.92; pKd [4, 6]: 5.53; pKd [5, 6]: 5.63"
SFKDQSKYCH,–,–,–,–,–,"pKd [1, 8]: ≤ 4.16; pKd [2, 8]: ≤ 4.15; pKd [3, 8]: ≤ 4.15; pKd [4, 8]: 5.94; pKd [5, 8]: 5.06"
PIGMQFDKVY,5.91,4.89,≤ 4.15,≤ 4.15,≤ 4.15,–
DTIVSRSSR,≤ 4.11,8.24,≤ 4.11,5.85,8.24,–
NIKPSKENR,≤ 4.52,7.98,5.13,6.26,6.47,–
LLTDTIESAK,7.07,6.18,6.72,5.00,5.63,–
FSGKSTELIR,4.77,6.06,≤ 4.42,5.72,5.75,–
KLLQTLVLK,–,–,–,–,–,"pKd [1, 6]: 5.97; pKd [2, 6]: ≤ 4.40; pKd [3, 6]: 6.06; pKd [4, 6]: 5.61; pKd [5, 6]: ≤ 4.35"
KIIETYLGR,≤ 4.11,≤ 4.11,≤ 4.11,≤ 4.11,≤ 4.11,–
ALCTLLHLHR,–,–,–,–,–,"pKd [1, 6]: 6.33; pKd [2, 6]: 5.47; pKd [3, 6]: 6.52; pKd [4, 6]: 7.29; pKd [5, 6]: 6.40"
NSTTDAEACY,4.75,5.13,≤ 4.15,≤ 4.15,≤ 4.15,–
KLSYGIATVR,–,–,–,–,–,"pKd [1, 6]: 5.85; pKd [2, 6]: 7.05; pKd [3, 6]: 6.06; pKd [4, 6]: 6.56; pKd [5, 6]: 4.82"
LLNVTYNIK,–,–,–,–,–,"pKd [1, 10]: 5.32; pKd [2, 10]: 4.95; pKd [3, 10]: 5.11; pKd [4, 10]: ≤ 4.11; pKd [5, 10]: ≤ 4.11"
EKFGHFCKYH,–,–,–,–,–,"pKd [1, 11]: ≤ 4.16; pKd [2, 11]: ≤ 4.15; pKd [3, 11]: ≤ 4.15; pKd [4, 11]: ≤ 4.48; pKd [5, 11]: ≤ 4.15"
RIDGAHLTK,–,–,–,–,–,"pKd [1, 6]: 7.92; pKd [2, 6]: ≤ 4.59; pKd [3, 6]: 7.57; pKd [4, 6]: 5.74; pKd [5, 6]: ≤ 4.11"
EAVYGNIKHK,4.93,7.21,4.73,4.86,≤ 4.15,–
QMAGVEVRY,5.64,5.13,7.30,≤ 4.51,≤ 4.69,–
LSCIRNASK,6.30,6.56,6.32,6.52,6.11,–
YSGLTPEQK,6.30,6.31,4.73,4.79,≤ 4.28,–
KSCICYGSY,8.16,≤ 4.53,6.36,6.38,6.44,–
SVVQKPVDVK,–,–,–,–,–,"pKd [1, 6]: 7.27; pKd [2, 6]: 6.07; pKd [3, 6]: 7.21; pKd [4, 6]: 5.10; pKd [5, 6]: ≤ 4.17"
LNNSFYYMR,–,–,–,–,–,"pKd [1, 11]: 5.23; pKd [2, 11]: 7.82; pKd [3, 11]: ≤ 4.11; pKd [4, 11]: 8.33; pKd [5, 11]: ≤ 4.66"
TSCSKNEAEK,6.78,6.41,5.42,5.24,≤ 4.15,–
VALYRRIQRR,≤ 4.32,≤ 4.52,≤ 4.15,6.25,5.87,–
GSFQEFRSNH,–,–,–,–,–,"pKd [1, 12]: 5.15; pKd [2, 12]: ≤ 4.15; pKd [3, 12]: ≤ 4.54; pKd [4, 12]: 5.82; pKd [5, 12]: ≤ 4.34"
